Results on 2 molecules are retold here after patent US20220411491A1 (Hoffmann-La Roche, published 2022).

Assay [1] addresses T1, human GPRC5D (human, UniProt Q9NZD1 1-345). The experiment in a line: cell-based or functional assay.
Assay [2] concerns the target T1, human GPRC5D. The experiment in a line: flow cytometry on NCI-H929 cells expressing human GPRC5D. How it is done:
To measure the binding to GPRC5D, we performed a flow cytometry-based binding assay on reported multiple myeloma cell lines (Lombardi et al., Molecular characterization of human multiple myeloma cell lines by integrative genomics: insights into the biology of the disease; Genes Chromosomes Cancer. 2007 March; 46(3):226-38.). The cell line NCI-H929 (ATCC® CRL-9068) was cultured in RPMI 1640 with Glutamax medium (Gibco) supplemented with 10% FBS, 1× Penicillin/Streptomycin (Gibco), lx Sodium Pyruvate (Gibco) and 50 μM beta-mercaptoethanol (Gibco).
0.1 Mio cells per well of a 96-round-bottom-well plate were incubated with 150 nM to 15 fM (serial dilutions of 1:10) of the indicated GPRC5D IgG constructs 5E11g2 and 5F11g2 or no construct for 30 min at 4° C. […] After two final washing steps, flow cytometric acquisition was performed on a custom-designed BD Biosciences Fortessa and analyzed using BD Diva. EC50 values were calculated, using GraphPad Prism software. […] None of the antibodies reaches saturation in the assessed concentration range.

T1 sequence (Q9NZD1 whole entry): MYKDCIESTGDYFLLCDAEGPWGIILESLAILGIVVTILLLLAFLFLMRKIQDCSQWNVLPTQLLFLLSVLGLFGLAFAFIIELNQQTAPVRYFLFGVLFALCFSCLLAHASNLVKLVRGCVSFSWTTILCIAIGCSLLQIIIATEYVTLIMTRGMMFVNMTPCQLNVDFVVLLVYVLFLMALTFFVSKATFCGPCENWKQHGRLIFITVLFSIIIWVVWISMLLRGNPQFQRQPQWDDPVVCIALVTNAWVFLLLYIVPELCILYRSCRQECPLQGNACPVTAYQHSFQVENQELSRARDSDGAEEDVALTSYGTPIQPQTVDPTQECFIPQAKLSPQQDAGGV

B1: 5E11g2 (antibody, human IgG1, kappa, V domains shown)
VH: ELQLEQSGGGLVQPGGSLTLSCAASGFTFSKYAMAWVRQAPTKGLEWVASISTGGVNTYYRDSVKARFTISRDNAKNTQYLQMDSLRSEDTATYYCATHTGDYFDYWGQGVMVTVSS
VL: DIVLTQSPALAVSPGQRATISCRASQSVSISGINLMNWYQQKPGQQPKLLIYHASILASGIPTRFSGSGSGTDFTLTIDPVQADDIATYYCQQTRESPLTFGSGTNLEIKR
notes: Glyco-engineered human IgG1 (GlycoMab technology); afucosylation degree 59.1%; also called BSH-5E11-G7 hu IgG1 G2
B1: in the assay with human GPRC5D [1], the “EC50 of GPRC5D-IgG induced tumor cell lysis (ADCC, LDH release), AMO-1” value was 405 pM and the “EC50 of GPRC5D-IgG induced tumor cell lysis (ADCC, LDH release), NCI-H929” value is 84 pM. In the assay with human GPRC5D [2], this molecule yielded a concentration for a half-maximal effect (EC50) of roughly 69.5 nM.

B2: 5F11g2 (antibody, human IgG1, kappa, V domains shown)
VH: EVQLVESGGGLVQPGRSLKLSCAASGFSFSNYGMAWVRQAATKGLEWVASISTGGGNTYYRDSVKGRFIVSRDNAKNTQYLQMDSLRSEDTATYYCTRHDRGGLYWGQGVMVTVSS
VL: DIVMTQAPLSVSVTPGESASISCRSSKSLLHSNGITYVYWYFQKPGKSPQVLIYRMSNLASGVPDRFSGSGSETDFTLKISRVEAEDVGIYHCGQLLENPYTFGAGTELELKR
B2: in the assay with human GPRC5D [1], the “EC50 of GPRC5D-IgG induced tumor cell lysis (ADCC, LDH release), AMO-1” value is 96 pM and the “EC50 of GPRC5D-IgG induced tumor cell lysis (ADCC, LDH release), NCI-H929” value was determined as 48 pM.
